Reference: publication PMC9932072

Target: Lys^B29Atto655-insulin aspart (human) (UniProt P01308)
Test: single-molecule TIRF microscopy; 10 nM labelled insulin in solution binding to labelled insulin nonspecifically immobilised on a PLL-PEG passivated surface; no Zn^2+, no phenol; 10 mM Na2HPO4, 10 mM NaH2PO4, 5 mM NaCl, pH 7.32, room temperature; seven-state HMM, rate constants of each step between monomer and hexamer (kij: state i to state j)

k24 (association rate constant, dimer to tetramer): 2e+08 M⁻¹ s⁻¹
k31 (dissociation rate constant, trimer to monomer): 0.062 s⁻¹
Substance: Lys^B29Atto655-insulin aspart (from UniProt P01308 90-110; P01308 25-54) (natural protein)
